Target: recombinant ED-B protein (UniProt P02751)
Assay: I-125 labelled antibody on a small column of ED-B sepharose, elution with TEA pH 11

Sequence of UniProt P02751 (P02751 1266-1356 limits assumed): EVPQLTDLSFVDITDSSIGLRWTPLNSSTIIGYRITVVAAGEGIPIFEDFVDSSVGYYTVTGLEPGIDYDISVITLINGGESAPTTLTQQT

- immuno-reactivity (% of labeled material that bound to the ED-B sepharose column and was eluted): 85 to 95%
Substance: L19, human recombinant antibody directed against the Extra Domain B

Source: WO2001096599A2
